We go through two molecules from US9803013B2, “Biological materials and uses thereof” (BioInvent International AB, priority 2005, dated 2017).

In one test the test system is Reh/KM-3. In words: IgG binding to pre B cell leukaemia cell line, flow cytometry MFI. Also on record: species or system human. The settings on record: Reh/KM-3, pre B cell Leukaemia; control FITC-8 IgG MFI subtracted. As to the method:
(§1) • ^aApoptosis Induction; determined by percentage of viable cells after 6 hour incubation with any of the human antibodies, crosslinked with Goat anti-Human (gamma) Fc specific antibody; −, viability not affected; +, 95-80%; ++, 79-60%; +++, 59-40% viable cells compared to control (human FITC-8 IgG1). […] The cell line dependent MFI value of control human FITC-8 IgG antibody was subtracted from the MFI of each human antibody.
In general terms: A flow cytometer gives signals particle by particle.

The test system of the next test is DOHH-2. In words: Apoptosis induction by cross-linked IgG (Annexin V/PI). The format is cell-based, human. The settings on record: viable cells after 6 hour incubation, crosslinked, compared to control FITC-8 IgG1. Here is the method:
(§2) 2×10^5 B lymphoma cells (Raji or Ramos) or Jurkat T cells were incubated with serially diluted and detoxified scFv's in culture medium for 1 h on ice.
(§3) When whole IgGs were used for apoptosis induction, cross-linking reagent was replaced by goat Fab′2 anti-human Fc γ antibody (Jackson ImmunoResearch) with minimal cross-reactivity with non-IgG antibody isotypes (to avoid unspecific cross-linking of endogenous B lymphoma associated surface immunoglobulins) and incubated, as described above, for 6 h.
(§4) Apoptotic cells were, unless otherwise stated, detected by combined staining with Annexin V Alexa Fluor 488 (AV) and Propidium Iodide (PI) (both from Molecular Probes, Invitrogen) and subsequent flow-cytometric analysis, Cells were defined as viable (AV−/PI−), early apoptotic (AV+/PI−) or late apoptotic/necrotic (AV+/PI+). AV and PI signals were recorded in the FL1 and FL2 or FL3 channels (as indicated in the text), respectively, using a FACSCalibur instrument (BD Biosciences).
as §1

The next test relates to Granta 519. Described as above. As to conditions: viable cells after 6 hour incubation, crosslinked, compared to control FITC-8 IgG1. The format is cell-based, human. As to the method: as §2, §3, §4, §1
In another test the test system is MC/CAR. The test is described as above. The format is cell-based, human. As to conditions: viable cells after 6 hour incubation, crosslinked, compared to control FITC-8 IgG1. Here is the method: as §2, §3, §4, §1
In a further test the test system is Rec-1. The test is described as above. The format is cell-based, human. As to conditions: viable cells after 6 hour incubation, crosslinked, compared to control FITC-8 IgG1. As to the method: as §2, §3, §4, §1
In another test the test system is SC-1. Described as above. The format is cell-based, human. As to conditions: viable cells after 6 hour incubation, crosslinked, compared to control FITC-8 IgG1. Here is the method:
as §2, §3, §4, §1

For another test, the system named is SP-53. Described as above. As to conditions: viable cells after 6 hour incubation, crosslinked, compared to control FITC-8 IgG1. The format is cell-based, human. Here is the method:
as §2, §3, §4, §1

In a further test the test system is WSU-NHL. The description is as above. The settings on record: viable cells after 6 hour incubation, crosslinked, compared to control FITC-8 IgG1. The format is cell-based, human. Here is the method:
as §2, §3, §4, §1

For the next test, the target named is ICAM-1 (Homo sapiens, UniProt P05362). The experiment in a line: Radioiodinated IgG B11 binding to Ramos cells, Rosenthal-Scatchard analysis. Also on record: endogenous in cells; host or cells: Ramos B lymphoma cells. Here is the method: Iodination of 1 mg/ml of IgG1 B1 or IgG1 B11 proteins with [^125I] NaI was performed in PBS for 10 min using Iodogen pre-coated iodination tubes (Pierce). Free [^125I] NaI was removed by desalting on PD-10 columns (Amersham Biosciences), yielding specific radioactivities in the range of 1000-1600 cpm per ng protein. [^125I] IgG1 B1 and [^125I] IgG1 B11 was used for determination of antibody affinities.
Radioiodinated IgG B1 or IgG B11 was incubated with B lymphoma cells in DPBS-B-hIgG (DPBS-B containing 0.2 mg/ml human IgG) for 2 h on ice with intermittent mixing. Non-specific binding was determined in the presence of 0.2 mg/ml unlabelled IgG B1 or IgG B11 protein, as appropriate. […]
Cells were loaded on top 40% v/v Ficoll/DPBS-B cushions in individual tubes and were centrifuged at 400×g for 6 min at 4° C. […] Cell pellets and cell supernatants were isolated and analysed separately for ^125I-IgG protein content in a gamma counter, following cutting of the tubes in half.
Antibody affinity constants (Kd values) and epitope numbers per cell were determined from Scatchard plot analysis according to Rosenthal et al. (Anal. Biochem. (1967) 20:525-532); Bylund and Yamamura (Methods in Neurotransmitter Analysed, New York: Raven Press Ltd., 1990); and Marquardt (J. Soc. Indust. Appl. Math. (1963) 11:431-441), as previously described (Brix et al., J. Clin. Invest. (1998) 102:283-293). […]

Sequence of ICAM-1 (P05362 28-532): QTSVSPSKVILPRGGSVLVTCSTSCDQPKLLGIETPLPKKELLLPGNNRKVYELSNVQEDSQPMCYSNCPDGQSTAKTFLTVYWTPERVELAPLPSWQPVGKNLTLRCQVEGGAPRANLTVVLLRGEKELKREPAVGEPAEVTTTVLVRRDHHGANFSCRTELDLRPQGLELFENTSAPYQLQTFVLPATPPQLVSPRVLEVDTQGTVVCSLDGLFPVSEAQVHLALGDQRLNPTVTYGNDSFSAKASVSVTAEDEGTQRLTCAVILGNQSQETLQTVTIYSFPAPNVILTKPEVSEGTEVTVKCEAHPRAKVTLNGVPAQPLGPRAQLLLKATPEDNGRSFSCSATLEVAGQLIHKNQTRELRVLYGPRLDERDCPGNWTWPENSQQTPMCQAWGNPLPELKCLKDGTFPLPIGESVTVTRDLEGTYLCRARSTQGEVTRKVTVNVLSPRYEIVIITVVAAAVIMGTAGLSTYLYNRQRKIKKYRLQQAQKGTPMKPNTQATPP

B1: B11: fully human IgG1 antibody specific for ICAM-1; VH and VL sequences of FIG. 10 (SEQ ID NOs. 6 and 8) (antibody, listed as Homo sapiens, V domains shown)
VH: EVQLLESGGGLVQPGGSLRLSCAASGFTFSNAWMSWVRQAPGKGLEWVAFIWYDGSNKYYADSVKGRFTISRDNSKNTLYLQMNSLRAEDTAVYYCARYSGWYFDYWGQGTLVTVSS
VL: QSVLTQPPSASGTPGQRVTISCTGSSSNIGAGYDVHWYQQLPGTAPKLLIYDNNNRPSGVPDRFSGSKSGTSASLAISGLRSEDEADYYCQSYDSSLSAWLFGGGTKLTVLG
As to B1, in the test on Reh/KM-3, the MFI turned out to be 20. Besides, the “Apoptosis Induction” value is listed as “−” in the test with DOHH-2; “+ (95-80%)” in the test with Granta 519; “+ (95-80%)” in the test on MC/CAR; “−” with Rec-1; “−” in the test with SC-1; “−” with SP-53. The “Apoptosis Induction” value in the test on WSU-NHL is listed as “−”. The “functional binding sites (receptors) per cell” value in the test with ICAM-1 (Rosenthal-Scatchard plot) is 47,400. Further, the “concentration at which saturable specific binding is reached” value in the test with ICAM-1 (radioiodinated IgG) is listed as about 1 nM.

B2: C11: fully human IgG1 antibody specific for surface IgM; VH and VL sequences of FIG. 11 (SEQ ID NOs. 10 and 12) (antibody, listed as Homo sapiens, V domains shown)
VH: EVQLLESGGGLVQPGGSLRLSCAASGFTFGSYEMNWVRQAPGKGLEWVSVIYSGGSTYYADSVEGRFTISRDNSKNTLYLQMNSLRAEDTAVYYCARDTNPYYYYGMDVWGQGTLVTVSS
VL: QSVLTQPPSASGTPGQRVTISCSGSSSNIGNNAVNWYQQLPGTAPKLLIYRNNQRPSGVPDRFSGSKSGTSASLAISGLRSEDEADYYCQSYDSSLNGQVFGGGTKLTVLG
On to B2, for which, in the test with Reh/KM-3, the MFI worked out at 0. Moreover, the “Apoptosis Induction” value in the test with DOHH-2 was “−”; with Granta 519, “+ (95-80%)”; in the test with MC/CAR, “−”; in the test on Rec-1, “−”; in the test with SC-1, “−”; in the test with SP-53 it was “−”. Further, the “Apoptosis Induction” value in the test on WSU-NHL is “−”.
